Positions count from the first letter of the chain named.
What was measured:
[1] = target: T1, eHead_H1_g2.10_mC; test: SPR; y axis without title or unit
T1 chain: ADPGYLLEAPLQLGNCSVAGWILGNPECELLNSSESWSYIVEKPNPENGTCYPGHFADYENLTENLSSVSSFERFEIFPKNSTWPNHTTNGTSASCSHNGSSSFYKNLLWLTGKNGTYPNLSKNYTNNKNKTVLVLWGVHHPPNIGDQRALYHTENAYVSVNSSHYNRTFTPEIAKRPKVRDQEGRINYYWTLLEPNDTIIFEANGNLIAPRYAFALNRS

[2] = target: T2, eHead_H1_v3.1_KO1_mC; test: SPR
T2 chain: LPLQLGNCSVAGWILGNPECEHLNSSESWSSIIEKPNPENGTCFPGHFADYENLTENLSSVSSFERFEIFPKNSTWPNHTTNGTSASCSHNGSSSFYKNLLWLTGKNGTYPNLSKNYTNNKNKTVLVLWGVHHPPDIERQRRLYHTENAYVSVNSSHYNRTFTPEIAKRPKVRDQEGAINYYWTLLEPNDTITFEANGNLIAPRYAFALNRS

[3] = target: T3, eHead_H1_v3.1_KO3_mC; test: SPR
T3 chain: T2 chain with L1E, P45W, A178R

[4] = target: T4, eHead_H1_v3.0_mC; test: SPR; y axis without title or unit
T4 engineered HA head domain: T2 chain with L1E, R139D, A178R

B1: FluA20 (as used in the SPR experiments of Example 4) (antibody, V domains shown)
VH: QVQLQESGPGLVKPSETLSLTCSVSGVSVTSDIYYWTWIRQPPGKGLEWIGYIFYNGDTNYNPSLKSRVTMSIDTSKNEFSLRLTSVTAADTAVYFCARGTEDLGYCSSGSCPNHWGQGTLVTVSS
VL: DIQMTQSPSSLSASIGDRVTITCRPSQNIRSFLNWFQHKPGKAPKLLIYAASNLQSGVPSRFSGSGSGTEFTLTIRSLQPEDFATYYCQQSYNTPPTFGQGTKVEIK
- binding result [1]: binds
- binding result [2]: no binding
- binding result [3]: no binding
- binding result [4]: binds
